{
  "source": "patent US20110015138A1",
  "about": "(GENUS ONCOLOGY, published 2011)",
  "key": {"GST-IκBα": {"molecular_target": "T1, GST-IκBα (UniProt P25963 1-317)", "T1 construct": "Bought (Millipore, Billerica, Mass.); not shown: glutathione S-transferase (GST) fusion moiety", "T1 sequence (looked up)": "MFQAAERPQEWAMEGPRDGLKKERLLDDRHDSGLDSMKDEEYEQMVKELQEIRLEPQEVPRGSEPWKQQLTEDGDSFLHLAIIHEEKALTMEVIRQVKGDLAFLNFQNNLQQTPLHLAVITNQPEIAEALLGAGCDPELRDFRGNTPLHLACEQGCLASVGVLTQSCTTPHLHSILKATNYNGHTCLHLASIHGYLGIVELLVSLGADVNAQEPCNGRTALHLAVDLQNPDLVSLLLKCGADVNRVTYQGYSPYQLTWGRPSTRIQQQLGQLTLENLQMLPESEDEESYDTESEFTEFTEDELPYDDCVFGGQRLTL", "assay": "GST pull-down of purified p65(1-180), immunoblot anti-p65"}, "[1]": {"molecular_target": "T2, purified recombinant NF-κB p65 (UniProt Q04206 1-551, limits assumed)", "T2 construct": "also called purified NF-κB p65", "assay": "GST pull-down of purified recombinant p65, immunoblot anti-p65"}, "[2]": {"molecular_target": "purified recombinant STAT3 (UniProt P40763 1-770, limits assumed)", "sequence (P40763 whole entry)": "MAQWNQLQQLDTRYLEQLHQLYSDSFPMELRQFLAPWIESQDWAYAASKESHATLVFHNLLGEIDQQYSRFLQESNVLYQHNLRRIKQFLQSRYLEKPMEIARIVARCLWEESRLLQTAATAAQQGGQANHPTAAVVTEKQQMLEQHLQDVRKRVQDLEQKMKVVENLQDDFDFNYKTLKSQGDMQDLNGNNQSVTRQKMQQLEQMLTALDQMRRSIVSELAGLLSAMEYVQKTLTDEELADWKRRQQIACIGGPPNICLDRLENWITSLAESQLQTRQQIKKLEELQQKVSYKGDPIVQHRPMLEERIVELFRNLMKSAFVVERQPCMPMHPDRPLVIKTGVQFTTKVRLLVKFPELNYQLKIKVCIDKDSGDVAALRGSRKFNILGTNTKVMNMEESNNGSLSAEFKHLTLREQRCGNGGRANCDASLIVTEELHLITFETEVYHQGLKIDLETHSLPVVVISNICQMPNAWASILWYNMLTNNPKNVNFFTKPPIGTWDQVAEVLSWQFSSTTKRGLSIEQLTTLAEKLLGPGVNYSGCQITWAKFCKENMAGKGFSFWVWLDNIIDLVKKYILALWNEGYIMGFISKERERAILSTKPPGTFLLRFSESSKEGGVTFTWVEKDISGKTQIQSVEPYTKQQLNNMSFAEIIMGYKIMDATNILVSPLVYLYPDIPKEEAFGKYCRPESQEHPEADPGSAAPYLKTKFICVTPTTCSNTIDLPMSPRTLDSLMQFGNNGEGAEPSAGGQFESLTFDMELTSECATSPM", "assay": "GST pull-down of purified recombinant STAT3, immunoblot anti-STAT3", "experimental": "(§1) FIGS. 9A-D: MUC1-C binds directly to the STAT3 DBD. (FIG. 9A) Lysates from ZR-75-1 (left) and MCF-7 (right) cells were subjected to immunoprecipitation with anti-STAT3 or a control IgG. The precipitates were immunoblotted with the indicated antibodies. (FIG. 9B) Lysates from ZR-75-1 cells were incubated with GST and GST-MUC1-CD bound to glutathione beads. The adsorbates were immunoblotted with anti-STAT3 Input of the GST and GST-MUC1-CD proteins was assessed by Coomassie blue staining. (FIG. 9C) Amino acid sequence of the MUC1 cytoplasmic domain is shown with the indicated phosphorylation and binding sites. GST, GST-MUC1-CD, GST-MUC1-CD (1-45) and GST-MUC1-CD (46-72) bound to glutathione beads were incubated with purified recombinant STAT3. The adsorbates were immunoblotted with anti-STAT3. Input of the GST and GST-MUC1-CD fusion proteins was assessed by Coomassie blue staining. (FIG. 9D) Structure of STAT3. GST, GST-STAT3 (full length; amino acids 1-770), […], […] and […] bound to glutathione beads were incubated with purified MUC1-CD. Adsorbates were immunoblotted with anti-MUC1-C. Input of the GST and GST-STAT3 fusion proteins was assessed by Coomassie blue staining.\n(§2) MUC1-C directly interacts with STAT3. […]"}, "[3]": {"molecular_target": "T3, STAT3 (in cells / cell lysates) (human, UniProt P40763 2-770)", "T3 construct": "Endogenous protein of the cell lines", "T3 sequence (P40763 2-770 limits assumed)": "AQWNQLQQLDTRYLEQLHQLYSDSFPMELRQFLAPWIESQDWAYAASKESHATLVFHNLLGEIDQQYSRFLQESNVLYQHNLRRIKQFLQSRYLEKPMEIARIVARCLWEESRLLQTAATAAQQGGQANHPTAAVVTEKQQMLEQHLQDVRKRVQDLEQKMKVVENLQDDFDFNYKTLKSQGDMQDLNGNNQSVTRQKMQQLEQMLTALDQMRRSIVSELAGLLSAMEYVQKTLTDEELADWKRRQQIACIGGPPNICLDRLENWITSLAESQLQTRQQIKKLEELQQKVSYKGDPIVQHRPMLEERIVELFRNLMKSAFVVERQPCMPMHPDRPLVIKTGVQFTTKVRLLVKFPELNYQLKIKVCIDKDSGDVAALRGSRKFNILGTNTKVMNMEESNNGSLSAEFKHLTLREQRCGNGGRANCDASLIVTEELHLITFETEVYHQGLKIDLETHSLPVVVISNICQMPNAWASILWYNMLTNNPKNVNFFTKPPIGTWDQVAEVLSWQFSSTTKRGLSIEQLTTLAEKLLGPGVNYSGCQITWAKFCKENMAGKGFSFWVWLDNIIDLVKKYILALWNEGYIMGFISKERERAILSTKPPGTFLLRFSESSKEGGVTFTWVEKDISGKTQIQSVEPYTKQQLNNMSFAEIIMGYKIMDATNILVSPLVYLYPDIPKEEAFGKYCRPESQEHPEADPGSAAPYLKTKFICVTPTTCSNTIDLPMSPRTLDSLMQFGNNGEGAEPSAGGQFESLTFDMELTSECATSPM", "assay": "co-immunoprecipitation with anti-STAT3 from ZR-75-1 and MCF-7 cell lysates, immunoblot anti-MUC1-C", "experimental": "as §1, §2"}, "[4]": {"molecular_target": "T4, NF-κB p65 (in cells / cell lysates) (human, UniProt Q04206 1-551)", "T4 construct": "Endogenous protein of the cell lines", "assay": "co-immunoprecipitation with anti-p65 from ZR-75-1, MCF-7 and U-937/MUC1-C cell lysates, immunoblot anti-MUC1-C", "experimental": "Immunoprecipitation and immunoblotting. Lysates from sub-confluent cells were prepared as described (Ren et al., 2004). Soluble proteins were precipitated with anti-NF-κB p65 (Santa Cruz Biotechnology, Santa Cruz, Calif.). […] Immune complexes were detected with horseradish peroxidase-conjugated secondary antibodies (GE Healthcare Biosciences, Piscataway, N.J.) and enhanced chemiluminescence (GE Healthcare).\nMUC1-C associates with NF-κB p65. To determine whether MUC1 interacts with NF-κB, anti-NF-κB p65 precipitates from ZR-75-1 breast cancer cells were immunoblotted with an antibody against the MUC1-C subunit cytoplasmic domain. […] Similar findings were obtained with lysates from MCF-7 breast cancer cells, which also overexpress endogenous MUC1 (FIG. 1B). To determine whether the MUC1-N subunit is necessary for the association, studies were performed on U-937 cells that stably express exogenous MUC1-C and not MUC1-N (Agata et al., 2008)."}, "[5]": {"molecular_target": "T5, GST-STAT3 (N-terminal; amino acids 1-257) (UniProt P40763 1-257)", "T5 construct": "range 1-257; The legend names it GST-MUC1-CD, but the text and the end of the legend speak of STAT3 deletion mutants / GST-STAT3 fusion proteins; also called dimerization domain; printed in the legend as GST-MUC1-CD (N-terminal: amino acids 1-257); not shown: glutathione S-transferase (GST) fusion moiety", "T5 sequence (P40763 1-257)": "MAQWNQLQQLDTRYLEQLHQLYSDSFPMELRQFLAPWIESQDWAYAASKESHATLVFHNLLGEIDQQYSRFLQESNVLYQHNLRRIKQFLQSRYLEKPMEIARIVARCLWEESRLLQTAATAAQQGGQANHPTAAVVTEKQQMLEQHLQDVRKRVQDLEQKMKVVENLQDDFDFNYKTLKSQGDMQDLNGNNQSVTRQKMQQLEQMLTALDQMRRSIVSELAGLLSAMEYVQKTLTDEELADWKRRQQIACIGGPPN", "assay": "GST-STAT3 deletion mutants on glutathione beads incubated with purified MUC1-CD, immunoblot anti-MUC1-C", "experimental": "as §1, §2"}, "[6]": {"molecular_target": "T6, GST-STAT3 (C-terminal; amino acids 514-770) (UniProt P40763 514-770)", "T6 construct": "range 514-770; The legend names it GST-MUC1-CD, but the text and the end of the legend speak of STAT3 deletion mutants / GST-STAT3 fusion proteins; also called printed in the legend as GST-MUC1-CD (C-terminal); not shown: glutathione S-transferase (GST) fusion moiety", "T6 sequence (P40763 514-770)": "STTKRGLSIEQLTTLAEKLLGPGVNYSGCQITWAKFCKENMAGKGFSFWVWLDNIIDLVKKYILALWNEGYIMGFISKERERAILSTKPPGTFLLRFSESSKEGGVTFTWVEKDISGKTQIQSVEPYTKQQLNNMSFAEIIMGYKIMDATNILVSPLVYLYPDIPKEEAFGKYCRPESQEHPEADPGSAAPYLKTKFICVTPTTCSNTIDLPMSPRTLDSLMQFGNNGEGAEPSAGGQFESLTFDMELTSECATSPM", "assay": "GST-STAT3 deletion mutants on glutathione beads incubated with purified MUC1-CD, immunoblot anti-MUC1-C", "experimental": "as §1, §2"}},
  "note": "Ends that are not written are not given here.",
  "data": [
    {"binder": "p65(1-180) (other, UniProt Q04206 1-180, looked up, range 1-180; Purified deletion mutant; also called purified p65(1-180)) MDELFPLIFPAEPAQASGPYVEIIEQPKQRGMRFRYKCEGRSAGSIPGERSTDTTKTHPTIKINGYTGPGTVRISLVTKDPPHRPHPHELVGKDCRDGFYEAELCPDRCIHSFQNLGIQCVKKRDLEQAISQRIQTNNNPFQVPIEEQRGDYDLNAVRLCFQVTVRDPSGRPLRLPPVLS", "values": [
      {"measurement": "binding result", "setting": "GST-IκBα", "value": "no binding"}
    ]},
    {"binder": "CQCRRKNYGQLDIFPARDTYHPMSEYPTYHTHGRYVPPSSTDRSP (other, cysteine pairing not given here; also: GST fusion, Deletion mutant of GST-MUC1-CD; residues counted on the 72 amino acid cytoplasmic domain; not shown: glutathione S-transferase (GST) fusion moiety)", "note": "[GST-MUC1-CD(1-45)]", "values": [
      {"measurement": "binding result", "setting": "[1]", "value": "no binding"},
      {"measurement": "binding result", "setting": "[2]", "value": "no binding"}
    ]},
    {"binder": "MUC1 C-terminal subunit (MUC1-C), in cells (receptor, Endogenous MUC1-C in lysates of ZR-75-1, MCF-7 and MCF-10A cells, or exogenous MUC1-C in U-937 cells and exogenous MUC1 in HeLa cells) SVVVQLTLAFREGTINVHDVETQFNQYKTEAASRYNLTISDVSVSDVPFPFSAQSGAGVPGWGIALLVLVCVLVALAIVYLIALAVCQCRRKNYGQLDIFPARDTYHPMSEYPTYHTHGRYVPPSSTDRSPYEKVSAGNGGSSLSYTNPAVAATSANL", "values": [
      {"measurement": "binding result", "setting": "[3]", "value": "binds"},
      {"measurement": "binding result", "setting": "[4]", "value": "binds"}
    ]},
    {"binder": "MUC1-CD (purified, GST moiety removed with thrombin) (other, also called purified MUC1-CD; MUC1-C cytoplasmic domain) CQCRRKNYGQLDIFPARDTYHPMSEYPTYHTHGRYVPPSSTDRSPYEKVSAGNGGSSLSYTNPAVAATSANL", "values": [
      {"measurement": "binding result", "setting": "[5]", "value": "no binding"},
      {"measurement": "binding result", "setting": "[6]", "value": "no binding"}
    ]}
  ]
}
